Experimental data reported in patent publication US20190381169A1, “PHARMACEUTICAL COMBINATIONS FOR IMMUNOTHERAPY” (Technische Universitat Dresden, priority 2014, published 2019).
Entries after “also recorded” stand apart in the source; their conditions may differ.

Columns and labels:
Format in all cases: cell-based
p75^NTR [1] = target: T1, p75^NTR (Mus musculus, UniProt Q9Z0W1); assay: Expression of MHC and co-stimulatory molecules on murine PDCs
T1 construct: endogenous in cells; host or cells: murine plasmacytoid dendritic cells differentiated in vitro from bone marrow with Flt3-L (p75NTR+/+ wildtype; p75NTR-/- as control)
T1 sequence (Q9Z0W1 32-427): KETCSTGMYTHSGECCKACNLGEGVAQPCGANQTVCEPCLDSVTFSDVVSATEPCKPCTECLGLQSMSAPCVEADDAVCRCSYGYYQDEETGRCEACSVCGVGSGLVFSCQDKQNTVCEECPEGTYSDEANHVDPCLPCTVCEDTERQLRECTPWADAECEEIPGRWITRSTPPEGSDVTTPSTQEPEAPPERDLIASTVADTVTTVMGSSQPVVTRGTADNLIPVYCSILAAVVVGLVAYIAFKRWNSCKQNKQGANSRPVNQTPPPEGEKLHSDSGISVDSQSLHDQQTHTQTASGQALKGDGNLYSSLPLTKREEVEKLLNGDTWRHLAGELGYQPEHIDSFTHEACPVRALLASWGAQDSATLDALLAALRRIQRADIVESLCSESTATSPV

p75^NTR [2] = target: T1, p75^NTR; assay: Th1 cytokine secretion in co-culture of murine PDCs and OTII T-cells with ovalbumin peptide (CBA); conditions: OTII T-cells with p75^NTR+/+ PDCs and ovalbumin peptide 323-339, NGF 100 ng/ml, compared to p75^NTR−/− PDCs
Method: Murine T-cells were isolated from the OTII mouse strain expressing mouse alpha-chain and beta-chain T-cell receptor specific for chicken ovalbumin 323-339, using the CD+ T-cell isolation kit (Miltenyi Biotec).
Both, murine PDCs and T-cells were cultured overnight with or without the chicken ovalbumin peptide 323-339 in the presence or absence of NGF (100 ng/ml). The concentrations of T-cell secreted Th1-cytokines IL-2 and IFNγ in the supernatant were determined by using the CBA kit (BD Bioscience) following manufacturer's instruction with modification in data analysis using Microsoft Excel. […] In the presence of p75^NTR+/+ PDCs presenting the ovalbumin peptide (OVA) to the T-cells, T-cells secrete the Th1 cytokines IFNγ (FIG. 5A) and IL-2 (FIG. 5B).

p75^NTR [3] = target: T1, p75^NTR; assay: Western blotting of TLR signalling proteins in CpG treated murine PDCs
Source text: To investigate the mechanisms underlying these effects, we analysed PDCs treated with CPG-ODNs Class A (FIG. 3F) or Class B (FIG. 3G) using western blotting.

p75^NTR [4] = target: T1, p75^NTR; assay: Cytokine secretion and TLR9 expression of CpG stimulated murine PDCs
Method: Murine PDC were generated in vitro as follows: Bone marrow cells were isolated by flushing femur and tibia of mice. Erythrocytes were lysed using ACK buffer. Remaining cells were washed and cultured at a density of 2×10^6 cells per ml in RPMI 1640 medium supplemented with 10% FCS, 1 mM sodium pyruvat, 2 mM L-glutamine, 100 IU per ml penicillin, 100 μg/ml streptomycin, 10 mM HEPES buffer and 0.1 mM β-mercaptoethanol. To differentiate bone marrow cells into PDCs, 100 ng/ml Flt3-L (fms-like tyrosine kinase 3-ligand) was added to the cells. After 8 days of culture PDCs were enriched by removing the CD11b^+ fraction using CD11b Microbeads (Miltenyi Biotec) according to manufacturer instructions. Dead cells were excluded using Dead cell removal Kit (Miltenyi Biotec). Purity of PDCs was evaluated by flow cytometry (CD11b^−CD11c^+B220^+Siglec-H^+).
Murine PDC express the low affinity neurotrophin receptor p75^NTR but not the high affinity neurotrophin receptors (FIGS. 3A, 3B). […] Furthermore, only p75^NTR expressing PDC (p75^NTR+/+) increased the CPG-ODNs Class B induced secretion of the Th2 response inducing cytokines IL-6 and TNFα in the presence of NGF (FIG. 3D).

[5] = p75^NTR+/+ PDCs stimulated with CpG B, presence of NGF
[6] = p75^NTR+/+ PDCs stimulated with ovalbumin (OVA), NGF added
[7] = CpG A stimulated p75^NTR+/+ PDCs, NGF added
[8] = p75^NTR+/+ PDCs co-incubated with CpG B and NGF

NGF: Nerve growth factor, best characterized neurotrophin; natural p75^NTR agonist (R&D Systems)
expression of MHC-II (p75^NTR [1]; p75^NTR+/+ PDCs stimulated with CpG A, presence of NGF): reduced expression; also recorded: decreased expression
expression of MHC I (p75^NTR [1]; [5]): further increased expression
expression of MHC-II (p75^NTR [1]; [5]): increased expression; also recorded: further increase
expression of ICOS-L and MHC-II (p75^NTR [1]; [6]): further increased; also recorded: increased expression
expression of MHC-I, PD-L1 and Ox40-L (p75^NTR [1]; [6]): altered the expression; also recorded: decreased expression
expression of MHC-I, PD-L1 and Ox40-L on p75^NTR−/− PDCs (p75^NTR [1]; p75^NTR−/− PDCs stimulated with ovalbumin, NGF added): but not on p75^NTR−/− PDCs
secretion of Th1 cytokines IFNγ and IL-2 (p75^NTR [2]): reduced secretion
activation (phosphorylation) of IRF-3, IRF7, IKK and c-Jun (p75^NTR [3]; [7]): reduced activation
expression of MyD88 and TRAF6 (p75^NTR [3]; [7]): reduced expression
CpG A-induced phosphorylation of IRF3 and IRF7 (p75^NTR [3]; p75^NTR+/+ PDCs): attenuated
activation (phosphorylation) of IRF3, IRF7, IKK and c-Jun (p75^NTR [3]; [8]): increased
expression of MyD88 and TRAF3 (p75^NTR [3]; [8]): increased expression
levels of CpG-induced phosphorylation of IRF3 and IRF7 in p75^NTR−/− pDCs (p75^NTR [3]; p75^NTR−/− pDCs): did not alter
IFNα secretion (p75^NTR [4]; CPG-ODNs Class A (CpG A) stimulated p75^NTR+/+ PDCs, increasing NGF levels): decreasing levels; also recorded: reduced
expression of TLR9 (p75^NTR [4]; [7]): reduced expression; also recorded: negatively influenced
CPG-ODNs Class B induced secretion of IL-6 and TNFα (p75^NTR [4]; p75^NTR+/+ PDC in presence of NGF): increased
CpG-induced increase in TLR9 expression level (p75^NTR [4]; p75^NTR+/+ PDCs, CpG A or CpG B, presence of NGF): significantly decreased
TLR9 expression of p75^NTR−/− PDCs (p75^NTR [4]; p75^NTR−/− PDCs, CpG A or CpG B stimulation, NGF added): does not display a NGF induced alteration of TLR9 expression; also recorded: showed now difference in TLR9 expression
